These results are taken from article PMC9127447.

This assay deals with His-tagged dynamin 2b (dynamin 2-WT, baculovirus) (rat). The assay can be described thus: not stated; polymerization of recombinant (baculovirus) dynamin 2 with or without Bis-T-23; method in Supplementary Figures S2E, F.

B1: His-tagged dynamin 2b (dynamin 2-WT, baculovirus) (enzyme)
chain: MGNRGMEELIPLVNKLQDAFSSIGQSCHLDLPQIAVVGGQSAGKSSVLENFVGRDFLPRGSGIVTRRPLILQLIFSKTEYAEFLHCKSKKFTDFDEVRQEIEAETDRVTGTNKGISPVPINLRVYSPHVLNLTLIDLPGITKVPVGDQPPDIEYQIKDMILQFISRESSLILAVTPANMDLANSDALKLAKEVDPQGLRTIGVITKLDLMDEGTDARDVLENKLLPLRRGYIGVVNRSQKDIEGRKDIRAALAAERKFFLSHPAYRHMADRMGTPHLQKTLNQQLTNHIRESLPTLRSKLQSQLLSLEKEVEEYKNFRPDDPTRKTKALLQMVQQFGVDFEKRIEGSGDQVDTLELSGGARINRIFHERFPFELVKMEFDEKDLRREISYAIKNIHGVRTGLFTPDMAFEAIVKKQLVKLKEPSLKCVDLVVSELATVIKKCAEKLSSYPRLREETERIVTTYIREREGRTKDQILLLIDIEQSYINTNHEDFIGFANAQQRSTQLNKKRAIPNQGEILVIRRGWLTINNISLMKGGSKEYWFVLTAESLSWYKDEEEKEKKYMLPLDNLKIRDVEKGFMSNKHVFAIFNTEQRNVYKDLRQIELACDSQEDVDSWKASFLRAGVYPEKDQAENEDGAQENTFSMDPQLERQVETIRNLVDSYVAIINKSIRDLMPKTIMHLMINNTKAFIHHELLAYLYSSADQSSLMEESAEQAQRRDDMLRMYHALKEALNIIGDISTSTVSTPVPPPVDDTWLQNTSSHSPTPQRRPVSSVHPPGRPPAVRGPTPGPPLIPMPVGATSSFSAPPIPSRPGPQNVFANNDPFSAPPQIPSRPARIPPGIPPGVPSRRAPAAPSRPTIIRPAEPSLLD
modifications: not checked
Regarding B1, the fold increase of polymerization with Bis-T-23 against without Bis-T-23 was found to be 30 times.
